From the supplement of paper PMC5998384

Columns and labels:
[1] = test system: HeLa Kyoto; assay: solubility change mitosis vs G1/S (difference of NP-40 vs SDS log2 ratios) (log2 ratio difference); higher = more soluble in mitosis
[2] = test system: HeLa Kyoto; assay: solubility in G1/S (NP-40 vs SDS abundance) (log2 ratio); higher = more soluble; settings: cell cycle stage: G1/S
[3] = test system: HeLa Kyoto; assay: melting temperature (median over replicates), in situ; higher = more thermally stable
[4] = test system: HeLa Kyoto; assay: thermal stability score vs G1/S (z-score of summed log2 fold changes over temperatures); higher = more thermally stable than in G1/S
[5] = cell cycle stage: early G1 (4.5 h after nocodazole release)
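Wherever melting temperature (median over replicates), in situ is given: HeLa Kyoto cells synchronized by double thymidine or nocodazole block, proteins quantified by TMT10plex mass spectrometry, three independent biological replicates.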
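Wherever solubility change mitosis vs G1/S (difference of NP-40 vs SDS log2 ratios) is given: synchronized HeLa Kyoto cells (double thymidine block for G1/S, nocodazole release for mitosis), protein amounts in NP-40 versus SDS lysates quantified by mass spectrometry, three biological replicates.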
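Wherever solubility in G1/S (NP-40 vs SDS abundance) is given: HeLa Kyoto cells arrested at G1/S by double thymidine block, proteins quantified by TMT10plex mass spectrometry in mild NP-40 versus SDS extracts, three biological replicates.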
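Wherever thermal stability score vs G1/S (z-score of summed log2 fold changes over temperatures) is given: synchronized HeLa Kyoto cells, proteins quantified by TMT10plex mass spectrometry, three biological replicates, mitosis taken 0.5 h after nocodazole release, G1/S directly after double thymidine block.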

| Sequence | solubility change mitosis (log2) [1] | solubility in G1/S (log2) [2] | melting temperature ([3]; cell cycle stage: G1/S) | melting temperature ([3]; cell cycle stage: mitosis) | thermal stability score [4, 5] | thermal stability score ([4]; cell cycle stage: mitosis) |
| --- | --- | --- | --- | --- | --- | --- |
| MKPDETPMFDPSLLKEVDWSQNTATFSPAISPTHPGEGLVLRPLCTADLNRGFFKVLGQLTETGVVSPEQFMKSFEHMKKSGDYYVTVVEDVTLGQIVATATLIIEHKFIHSCAKRGRVEDVVVSDECRGKQLGKLLLSTLTLLSKKLNCYKITLECLPQNVGFYKKFGYTVSEENYMCRRFLK [GNPNAT1] | -0.0779 | 0.222 | 56.2 °C | 57.5 °C | -0.0383 | -1.14 |
| MASYPSGSGKPKAKYPFKKRASLQASTAAPEARGGLGAPPLQSARSLPGPAPCLKHFPLDLRTSMDGKCKEIAEELFTRSLAESELRSAPYEFPEESPIEQLEERRQRLERQISQDVKLEPDILLRAKQDFLKTDSDSDLQLYKEQGEGQGDRSLRERDVLEREFQRVTISGEEKCGVPFTDLLDAAKSVVRALFIREKYMALSLQSFCPTTRRYLQQLAEKPLETRTYEQGPDTPVSADAPVHPPALEQHPYEHCEPSTMPGDLGLGLRMVRGVVHVYTRREPDEHCSEVELPYPDLQEFVADVNVLMALIINGPIKSFCYRRLQYLSSKFQMHVLLNEMKELAAQKKVPHRDFYNIRKVDTHIHASSCMNQKHLLRFIKRAMKRHLEEIVHVEQGREQTLREVFESMNLTAYDLSVDTLDVHADRNTFHRFDKFNAKYNPIGESVLREIFIKTDNRVSGKYFAHIIKEVMSDLEESKYQNAELRLSIYGRSRDEWDKLARWAVMHRVHSPNVRWLVQVPRLFDVYRTKGQLANFQEMLENIFLPLFEATVHPASHPELHLFLEHVDGFDSVDDESKPENHVFNLESPLPEAWVEEDNPPYAYYLYYTFANMAMLNHLRRQRGFHTFVLRPHCGEAGPIHHLVSAFMLAENISHGLLLRKAPVLQYLYYLAQIGIAMSPLSNNSLFLSYHRNPLPEYLSRGLMVSLSTDDPLQFHFTKEPLMEEYSIATQVWKLSSCDMCELARNSVLMSGFSHKVKSHWLGPNYTKEGPEGNDIRRTNVPDIRVGYRYETLCQELALITQAVQSEMLETIPEEAGITMSPGPQ [AMPD2] | -0.181 | 0.0591 | 56.2 °C | 55 °C | -0.578 | -2.37 |
| MVEPGQDLLLAALSESGISPNDLFDIDGGDAGLATPMPTPSVQQSVPLSALELGLETEAAVPVKQEPETVPTPALLNVRQQPPSTTTFVLNQINHLPPLGSTIVMTKTPPVTTNRQTITLTKFIQTTASTRPSVSAPTVRNAMTSAPSKDQVQLKDLLKNNSLNELMKLKPPANIAQPVATAATDVSNGTVKKESSNKEGARMWINDMKMRSFSPTMKVPVVKEDDEPEEEDEEEMGHAETYAEYMPIKLKIGLRHPDAVVETSSLSSVTPPDVWYKTSISEETIDNGWLSALQLEAITYAAQQHETFLPNGDRAGFLIGDGAGVGKGRTIAGIIYENYLLSRKRALWFSVSNDLKYDAERDLRDIGAKNILVHSLNKFKYGKISSKHNGSVKKGVIFATYSSLIGESQSGGKYKTRLKQLLHWCGDDFDGVIVFDECHKAKNLCPVGSSKPTKTGLAVLELQNKLPKARVVYASATGASEPRNMAYMNRLGIWGEGTPFREFSDFIQAVERRGVGAMEIVAMDMKLRGMYIARQLSFTGVTFKIEEVLLSQSYVKMYNKAVKLWVIARERFQQAADLIDAEQRMKKSMWGQFWSAHQRFFKYLCIASKVKRVVQLAREEIKNGKCVVIGLQSTGEARTLEALEEGGGELNDFVSTAKGVLQSLIEKHFPAPDRKKLYSLLGIDLTAPSNNSSPRDSPCKENKIKKRKGEEITREAKKARKVGGLTGSSSDDSGSESDASDNEESDYESSKNMSSGDDDDFNPFLDESNEDDENDPWLIRKDHKKNKEKKKKKSIDPDSIQSALLASGLGSKRPSFSSTPVISPAPNSTPANSNTNSNSSLITSQDAVERAQQMKKDLLDKLEKLAEDLPPNTLDELIDELGGPENVAEMTGRKGRVVSNDDGSISYESRSELDVPVEILNITEKQRFMDGDKNIAIISEAASSGISLQADRRAKNQRRRVHMTLELPWSADRAIQQFGRTHRSNQVTAPEYVFLISELAGEQRFASIVAKRLESLGALTHGDRRATESRDLSRFNFDNKYGRNALEIVMKSIVNLDSPMVSPPPDYPGEFFKDVRQGLIGVGLINVEDRSGILTLDKDYNNIGKFLNRILGMEVHQQNALFQYFADTLTAVVQNAKKNGRYDMGILDLGSGDEKVRKSDVKKFLTPGYSTSGHVELYTISVERGMSWEEATKIWAELTGPDDGFYLSLQIRNNKKTAILVKEVNPKKKLFLVYRPNTGKQLKLEIYADLKKKYKKVVSDDALMHWLDQYNSSADTCTHAYWRGNCKKASLGLVCEIGLRCRTYYVLCGSVLSVWTKVEGVLASVSGTNVKMQIVRLRTEDGQRIVGLIIPANCVSPLVNLLSTSDQSQQLAVQQKQLWQQHHPQSITNLSNA [SBNO1] | -0.158 | 0.0971 | 50.9 °C | 51.4 °C | 1.19 | 2.1 |
| MLGARAWLGRVLLLPRAGAGLAASRRGSSSRDKDRSATVSSSVPMPAGGKGSHPSSTPQRVPNRLIHEKSPYLLQHAYNPVDWYPWGQEAFDKARKENKPIFLSVGYSTCHWCHMMEEESFQNEEIGRLLSEDFVSVKVDREERPDVDKVYMTFVQATSSGGGWPMNVWLTPNLQPFVGGTYFPPEDGLTRVGFRTVLLRIREQWKQNKNTLLENSQRVTTALLARSEISVGDRQLPPSAATVNNRCFQQLDEGYDEEYGGFAEAPKFPTPVILSFLFSYWLSHRLTQDGSRAQQMALHTLKMMANGGIRDHVGQGFHRYSTDRQWHVPHFEKMLYDQAQLAVAYSQAFQLSGDEFYSDVAKGILQYVARSLSHRSGGFYSAEDADSPPERGQRPKEGAYYVWTVKEVQQLLPEPVLGATEPLTSGQLLMKHYGLTEAGNISPSQDPKGELQGQNVLTVRYSLELTAARFGLDVEAVRTLLNSGLEKLFQARKHRPKPHLDSKMLAAWNGLMVSGYAVTGAVLGQDRLINYATNGAKFLKRHMFDVASGRLMRTCYTGPGGTVEHSNPPCWGFLEDYAFVVRGLLDLYEASQESAWLEWALRLQDTQDKLFWDSQGGGYFCSEAELGAGLPLRLKDDQDGAEPSANSVSAHNLLRLHGFTGHKDWMDKCVCLLTAFSERMRRVPVALPEMVRALSAQQQTLKQIVICGDRQAKDTKALVQCVHSVYIPNKVLILADGDPSSFLSRQLPFLSTLRRLEDQATAYVCENQACSVPITDPCELRKLLHP [SPATA20] | -0.304 | 0.267 | 51.6 °C | 52.6 °C | 0.594 | 0.85 |
| MAGVRSLRCSRGCAGGCECGDKGKCSDSSLLGKRLSEDSSRHQLLQKWASMWSSMSEDASVADMERAQLEEEAAAAEERPLVFLCSGCRRPLGDSLSWVASQEDTNCILLRCVSCNVSVDKEQKLSKREKENGCVLETLCCAGCSLNLGYVYRCTPKNLDYKRDLFCLSVEAIESYVLGSSEKQIVSEDKELFNLESRVEIEKSLTQMEDVLKALQMKLWEAESKLSFATCKS [MIS18A] | 0.371 | -0.162 | 51.3 °C | 51.9 °C | -2.17 | -2.88 |
| MSECGGRGGGSSSSEDAEDEGGGGGGPAGSDCLSSSPTLATASSAGRLRRGLRGAFLMARQRPELLCGAVALGCALLLALKFTCSRAKDVIIPAKPPVSFFSLRSPVLDLFQGQLDYAEYVRRDSEVVLLFFYAPWCGQSIAARAEIEQAASRLSDQVLFVAINCWWNQGKCRKQKHFFYFPVIYLYHRSFGPIEYKGPMSAVYIEKFVRRVMKPLLYIPSQSELLDFLSNYEPGVLGYFEFSGSPQPPGYLTFFTSALHSLKKALESTSSPRALVSFTGEWHLETKIYVLDYLGTVRFGVITNKHLAKLVSLVHSGSVYLHRHFNTSLVFPREVLNYTAENICKWALENQETLFRWLRPHGGKSLLLNNELKKGPALFLFIPFNPLAESHPLIDEITEVALEYNNCHGDQVVERLLQHLRRVDAPVLESLALEVPAQLPDPPTITASPCCNTVVLPQWHSFSRTHNVCELCVNQTSGGMKPSSVSVPQCSFFEMAAALDSFYLKEQTFYHVASDSIECSNFLTSYSPFSYYTACCRTISRGVSGFIDSEQGVFEAPTVAFSSLEKKCEVDAPSSVPHIEENRYLFPEVDMTSTNFTGLSCRTNKTLNIYLLDSNLFWLYAERLGAPSSTQVKEFAAIVDVKEESHYILDPKQALMKLTLESFIQNFSVLYSPLKRHLIGSGSAQFPSQHLITEVTTDTFWEVVLQKQDVLLLYYAPWCGFCPSLNHIFIQLARNLPMDTFTVARIDVSQNDLPWEFMVDRLPTVLFFPCNRKDLSVKYPEDVPITLPNLLRFILHHSDPASSPQNVANSPTKECLQSEAVLQRGHISHLEREIQKLRAEISSLQRAQVQVESQLSSARRDEHRLRQQQRALEEQHSLLHAHSEQLQALYEQKTRELQELARKLQELADASENLLTENTWLKILVATMERKLEGRDGAESLAAQREVHPKQPEPSATPQLPGSSPPPANVSATLVSERNKENRTD [TXNDC11] | -0.134 | -0.00943 | 53.5 °C | – | 0.926 | 2.27 |
| MLVHLFRVGIRGGPFPGRLLPPLRFQTFSAVRNTWRNGKTGQLHKAEGEYSDGYRSSSLLRAVAHLRSQLWAHLPRAPLAPRWSPSAWCWVGGALLGPMVLSKHPHLCLVALCEAEEAPPASSTPHVVGSRFNWKLFWQFLHPHLLVLGVAVVLALGAALVNVQIPLLLGQLVEVVAKYTRDHVGSFMTESQNLSTHLLILYGVQGLLTFGYLVLLSHVGERMAVDMRRALFSSLLRQDITFFDANKTGQLVSRLTTDVQEFKSSFKLVISQGLRSCTQVAGCLVSLSMLSTRLTLLLMVATPALMGVGTLMGSGLRKLSRQCQEQIARAMGVADEALGNVRTVRAFAMEQREEERYGAELEACRCRAEELGRGIALFQGLSNIAFNCMVLGTLFIGGSLVAGQQLTGGDLMSFLVASQTVQRSMANLSVLFGQVVRGLSAGARVFEYMALNPCIPLSGGCCVPKEQLRGSVTFQNVCFSYPCRPGFEVLKDFTLTLPPGKIVALVGQSGGGKTTVASLLERFYDPTAGVVMLDGRDLRTLDPSWLRGQVVGFISQEPVLFGTTIMENIRFGKLEASDEEVYTAAREANAHEFITSFPEGYNTVVGERGTTLSGGQKQRLAIARALIKQPTVLILDEATSALDAESERVVQEALDRASAGRTVLVIAHRLSTVRGAHCIVVMADGRVWEAGTHEELLKKGGLYAELIRRQALDAPRTAAPPPKKPEGPRSHQHKS [ABCB8] | 0.155 | -0.36 | 51.1 °C | – | 0.49 | -0.355 |
| MSGEDEQQEQTIAEDLVVTKYKMGGDIANRVLRSLVEASSSGVSVLSLCEKGDAMIMEETGKIFKKEKEMKKGIAFPTSISVNNCVCHFSPLKSDQDYILKEGDLVKIDLGVHVDGFIANVAHTFVVDVAQGTQVTGRKADVIKAAHLCAEAALRLVKPGNQNTQVTEAWNKVAHSFNCTPIEGMLSHQLKQHVIDGEKTIIQNPTDQQKKDHEKAEFEVHEVYAVDVLVSSGEGKAKDAGQRTTIYKRDPSKQYGLKMKTSRAFFSEVERRFDAMPFTLRAFEDEKKARMGVVECAKHELLQPFNVLYEKEGEFVAQFKFTVLLMPNGPMRITSGPFEPDLYKSEMEVQDAELKALLQSSASRKTQKKKKKKASKTAENATSGETLEENEAGD [PA2G4] | -0.108 | -0.0146 | 51.5 °C | 52.1 °C | -0.392 | 2 |
